Elastase inhibitory activity (%), peptide data for one molecule are collected here from publication PMC10673124.

In the experiment the target is Elastase (UniProt P00772).
Sequence of UniProt P00772 (P00772 27-266): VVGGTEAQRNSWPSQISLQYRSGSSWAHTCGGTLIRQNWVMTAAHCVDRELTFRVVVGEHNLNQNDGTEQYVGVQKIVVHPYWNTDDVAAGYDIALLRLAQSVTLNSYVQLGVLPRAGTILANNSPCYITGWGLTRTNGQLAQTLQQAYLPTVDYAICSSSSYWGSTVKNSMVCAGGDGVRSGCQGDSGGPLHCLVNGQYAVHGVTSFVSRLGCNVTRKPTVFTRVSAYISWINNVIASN

With VGVPGVGVPGVGVPGV [S1 (…)], the elastase inhibitory activity (%), peptide at 10-20 mM, substrate N-Succinyle-Ala-Ala-Ala-pNA stood at 76.3%.
